For orientation: Kd means the constant that tells how readily two partners part at equilibrium. High values mean lower affinity, low ones higher affinity.

Assay [1] concerns the target T1, Ctla-4 with EGFP-tag (labeled protein of the MST assay) (zebrafish).
T1 construct: zebrafish Ctla-4 (XM_005167519.4)
The assay is described as follows: MST; Monolith NT.115; labeled proteins (Cd28/Ctla-4 with EGFP-tag) incubated with 16 doubling dilutions of unlabeled Cd80/86 from 3.2 µM, 10 min at room temperature; 25℃, 40% LED, medium MST power.

Assay [2] deals with T2, Cd28 with EGFP-tag (labeled protein of the MST assay) (zebrafish).
T2 construct: zebrafish Cd28; identifier not given
Described as above.

T1 sequence (partner, as listed by the source): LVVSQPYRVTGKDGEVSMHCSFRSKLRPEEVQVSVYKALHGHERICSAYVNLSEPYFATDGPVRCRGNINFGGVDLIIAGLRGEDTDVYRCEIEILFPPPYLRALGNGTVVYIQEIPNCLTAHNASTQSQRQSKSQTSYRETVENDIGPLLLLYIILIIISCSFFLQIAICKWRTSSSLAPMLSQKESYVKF
T2 sequence (partner, as listed by the source): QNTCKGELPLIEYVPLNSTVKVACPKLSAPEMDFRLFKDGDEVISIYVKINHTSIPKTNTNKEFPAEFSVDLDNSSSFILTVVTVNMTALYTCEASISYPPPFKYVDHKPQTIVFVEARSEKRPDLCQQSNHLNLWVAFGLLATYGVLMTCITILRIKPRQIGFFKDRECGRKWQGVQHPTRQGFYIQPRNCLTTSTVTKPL

B1: soluble Cd80/86 (extracellular domain) (domain or fragment)
chain: DNSQPKNISAVVGRSVTFRCPWNLSIPVYRLYIQKLENQPLFINGFNNGKKLPVSPEYQDRTEVNQAELSMEMTNIKLSDEGSYECVVFSSTSSRDIFQINLKVTAEFTTPESKSECSENDGAKKGRSCQMSCSAAGGYPVSDVKWLGLNQSRIRVLQNETAENSTSKTWSVNQTINYTCEHPINVSCDIGGSDSHTITICEAESFPLK
Consider B1, for which the Kd in assay [1] was 500 nM; in assay [2] it was 2640 nM.
